In patent US20150246959A1 (US Dept. of Health and Human Services, published 2015):

Experiments:
Experiment in all cases: cell-based or functional assay
[1] = biological target: MAGE-A3: 243-256 peptide presented by HLA-DP*0401 on 293-CIITA cells (human, UniProt P20036 29-260)
[2] = biological target: MAGE-A3: 243-255 peptide presented by HLA-DP*0401 on 293-CIITA cells (human, UniProt P20036 29-260)
[3] = biological target: MAGE-A3: 243-254 peptide presented by HLA-DP*0401 on 293-CIITA cells (human, UniProt P20036 29-260)
[4] = biological target: MAGE-A3: 243-253 peptide presented by HLA-DP*0401 on 293-CIITA cells (human, UniProt P20036 29-260)
[5] = biological target: MAGE-A3: 245-258 peptide presented by HLA-DP*0401 on 293-CIITA cells (human, UniProt P20036 29-260)
[6] = biological target: MAGE-A3: 246-258 peptide presented by HLA-DP*0401 on 293-CIITA cells (human, UniProt P20036 29-260)
[7] = biological target: MAGE-A3: 247-258 peptide presented by HLA-DP*0401 on 293-CIITA cells (human, UniProt P20036 29-260)
[8] = biological target: MAGE-A3: 248-258 peptide presented by HLA-DP*0401 on 293-CIITA cells (human, UniProt P20036 29-260)
[9] = biological target: MAGE-A3: 249-258 peptide presented by HLA-DP*0401 on 293-CIITA cells (human, UniProt P20036 29-260)
[10] = biological target: MAGE-A6: 248-258 peptide presented by HLA-DP*0401 on 293-CIITA cells (human, UniProt P20036 29-260)
[11] = biological target: MAGE-A2/A12: 248-258 peptide presented by HLA-DP*0401 on 293-CIITA cells (human, UniProt P20036 29-260)
[12] = biological target: MAGE-A4/A9: 249-259 peptide presented by HLA-DP*0401 on 293-CIITA cells (human, UniProt P20036 29-260)
[13] = biological target: MAGE-A8: 251-261 peptide presented by HLA-DP*0401 on 293-CIITA cells (human, UniProt P20036 29-260)
[14] = biological target: MAGE-A1/B4: 241-251 peptide presented by HLA-DP*0401 on 293-CIITA cells (human, UniProt P20036 29-260)
[15] = biological target: MAGE-B2: 250-260 peptide presented by HLA-DP*0401 on 293-CIITA cells (human, UniProt P20036 29-260)
[16] = biological target: MAGE-B10: 250-260 peptide presented by HLA-DP*0401 on 293-CIITA cells (human, UniProt P20036 29-260)
[17] = biological target: MAGE-B16: 252-262 peptide presented by HLA-DP*0401 on 293-CIITA cells (human, UniProt P20036 29-260)
[18] = biological target: MAGE-C1: 113-123 peptide presented by HLA-DP*0401 on 293-CIITA cells (human, UniProt P20036 29-260)
[19] = biological target: MAGE-D4: 300-315 peptide presented by HLA-DP*0401 on 293-CIITA cells (human, UniProt P20036 29-260)
[20] = biological target: MAGE-D2: 413-428 peptide presented by HLA-DP*0401 on 293-CIITA cells (human, UniProt P20036 29-260)
[21] = biological target: MAGE-L2: 582-597 peptide presented by HLA-DP*0401 on 293-CIITA cells (human, UniProt P20036 29-260)
[22] = biological target: MAGE-G1: 220-235 peptide presented by HLA-DP*0401 on 293-CIITA cells (human, UniProt P20036 29-260)
[23] = biological target: Necdin: 237-247 peptide presented by HLA-DP*0401 on 293-CIITA cells (human, UniProt P20036 29-260)
[24] = biological target: MAGE-A3: 243-258 peptide presented by HLA-DP*0401 on 293-CIITA cells (human, UniProt P20036 29-260)

B1: 6F9 TCR (TCR)
TCR alpha: QTVTQSQPEMSVQEAETVTLSCTYDTSESDYYLFWYKQPPSRQMILVIRQEAYKQQNATENRFSVNFQKAAKSFSLKISDSQLGDAAMYFCALRSSGTYKYIFGTGTRLKVLANIQNPDPAVYQLRDSKSSDKSVCLFTDFDSQTNVSQSKDSDVYITDKTVLDMRSMDFKSNSAVAWSNKSDFACANAFNNSIIPEDTFFPSPESSCDVKLVEKSFETDTNLNFQNLSVIGFRILLLKVAGFNLLMTLRLWSS
TCR beta: GAGVSQSPSNKVTEKGKDVELRCDPISGHTALYWYRQSLGQGLEFLIYFQGNSAPDKSGLPSDRFSAERTGGSVSTLTIQRTQQEDSAVYLCASIRTGPFFSGNTIYFGEGSWLTVVEDLNKVFPPEVAVFEPSEAEISHTQKATLVCLATGFFPDHVELSWWVNGKEVHSGVSTDPQPLKEQPALNDSRYCLSSRLRVSATFWQNPRNHFRCQVQFYGLSENDEWTQDRAKPVTQIVSAEAWGRADCGFTSVSYQQGVLSATILYEILLGKATLYAVLVSALVLMAMVKRKDF
- IFN-g (pg/ml); CD4+ T cells of PBMC-1; 293-CIITA pulsed with peptide [1]: 1020 pg/mL
- IFN-g (pg/ml); CD4+ T cells of PBMC-2; 293-CIITA pulsed with peptide [1]: 1670 pg/mL
- IFN-g (pg/ml); CD4+ T cells of PBMC-1; 293-CIITA pulsed with peptide [2]: 76 pg/mL
- IFN-g (pg/ml); CD4+ T cells of PBMC-2; 293-CIITA pulsed with peptide [2]: 111 pg/mL
- IFN-g (pg/ml); CD4+ T cells of PBMC-1; 293-CIITA pulsed with peptide [3]: 28 pg/mL
- IFN-g (pg/ml); CD4+ T cells of PBMC-2; 293-CIITA pulsed with peptide [3]: 30 pg/mL
- IFN-g (pg/ml); CD4+ T cells of PBMC-1; 293-CIITA pulsed with peptide [4]: 0 pg/mL
- IFN-g (pg/ml); CD4+ T cells of PBMC-2; 293-CIITA pulsed with peptide [4]: 30 pg/mL
- IFN-g (pg/ml); CD4+ T cells of PBMC-1; 293-CIITA pulsed with peptide [5]: 9290 pg/mL
- IFN-g (pg/ml); CD4+ T cells of PBMC-2; 293-CIITA pulsed with peptide [5]: 8920 pg/mL
- IFN-g (pg/ml); CD4+ T cells of PBMC-1; 293-CIITA pulsed with peptide [6]: 7140 pg/mL
- IFN-g (pg/ml); CD4+ T cells of PBMC-2; 293-CIITA pulsed with peptide [6]: 9200 pg/mL
- IFN-g (pg/ml); CD4+ T cells of PBMC-1; 293-CIITA pulsed with peptide [7]: 6710 pg/mL
- IFN-g (pg/ml); CD4+ T cells of PBMC-2; 293-CIITA pulsed with peptide [7]: 6810 pg/mL
- IFN-g (pg/ml); CD4+ T cells of PBMC-1; 293-CIITA pulsed with peptide [8]: 6220 pg/mL
- IFN-g (pg/ml); CD4+ T cells of PBMC-2; 293-CIITA pulsed with peptide [8]: 7400 pg/mL
- IFN-g (pg/ml); CD4+ T cells of PBMC-1; 293-CIITA pulsed with peptide [9]: 669 pg/mL
- IFN-g (pg/ml); CD4+ T cells of PBMC-2; 293-CIITA pulsed with peptide [9]: 922 pg/mL
- IFN-g (pg/ml); CD4+ T cells of PBMC-1; 293-CIITA pulsed with peptide [10]: 6440 pg/mL
- IFN-g (pg/ml); CD4+ T cells of PBMC-2; 293-CIITA pulsed with peptide [10]: 13200 pg/mL
- IFN-g (pg/ml); CD4+ T cells of PBMC-1; 293-CIITA pulsed with peptide [11]: 33 pg/mL
- IFN-g (pg/ml); CD4+ T cells of PBMC-2; 293-CIITA pulsed with peptide [11]: 37 pg/mL
- IFN-g (pg/ml); CD4+ T cells of PBMC-1; 293-CIITA pulsed with peptide [12]: 0 pg/mL
- IFN-g (pg/ml); CD4+ T cells of PBMC-2; 293-CIITA pulsed with peptide [12]: 22 pg/mL
- IFN-g (pg/ml); CD4+ T cells of PBMC-1; 293-CIITA pulsed with peptide [13]: 43 pg/mL
- IFN-g (pg/ml); CD4+ T cells of PBMC-2; 293-CIITA pulsed with peptide [13]: 39 pg/mL
- IFN-g (pg/ml); CD4+ T cells of PBMC-1; 293-CIITA pulsed with peptide [14]: 129 pg/mL
- IFN-g (pg/ml); CD4+ T cells of PBMC-2; 293-CIITA pulsed with peptide [14]: 108 pg/mL
- IFN-g (pg/ml); CD4+ T cells of PBMC-1; 293-CIITA pulsed with peptide [15]: 0 pg/mL
- IFN-g (pg/ml); CD4+ T cells of PBMC-2; 293-CIITA pulsed with peptide [15]: 7 pg/mL
- IFN-g (pg/ml); CD4+ T cells of PBMC-1; 293-CIITA pulsed with peptide [16]: 22 pg/mL
- IFN-g (pg/ml); CD4+ T cells of PBMC-2; 293-CIITA pulsed with peptide [16]: 28 pg/mL
- IFN-g (pg/ml); CD4+ T cells of PBMC-1; 293-CIITA pulsed with peptide [17]: 0 pg/mL
- IFN-g (pg/ml); CD4+ T cells of PBMC-2; 293-CIITA pulsed with peptide [17]: 11 pg/mL
- IFN-g (pg/ml); CD4+ T cells of PBMC-1; 293-CIITA pulsed with peptide [18]: 9 pg/mL
- IFN-g (pg/ml); CD4+ T cells of PBMC-2; 293-CIITA pulsed with peptide [18]: 25 pg/mL
- IFN-g (pg/ml); CD4+ T cells of PBMC-1; 293-CIITA pulsed with peptide [19]: 193 pg/mL
- IFN-g (pg/ml); CD4+ T cells of PBMC-2; 293-CIITA pulsed with peptide [19]: 194 pg/mL
- IFN-g (pg/ml); CD4+ T cells of PBMC-1; 293-CIITA pulsed with peptide [20]: 82 pg/mL
- IFN-g (pg/ml); CD4+ T cells of PBMC-2; 293-CIITA pulsed with peptide [20]: 226 pg/mL
- IFN-g (pg/ml); CD4+ T cells of PBMC-1; 293-CIITA pulsed with peptide [21]: 45 pg/mL
- IFN-g (pg/ml); CD4+ T cells of PBMC-2; 293-CIITA pulsed with peptide [21]: 78 pg/mL
- IFN-g (pg/ml); CD4+ T cells of PBMC-1; 293-CIITA pulsed with peptide [22]: 0 pg/mL
- IFN-g (pg/ml); CD4+ T cells of PBMC-2; 293-CIITA pulsed with peptide [22]: 25 pg/mL
- IFN-g (pg/ml); CD4+ T cells of PBMC-1; 293-CIITA pulsed with peptide [23]: 0 pg/mL
- IFN-g (pg/ml); CD4+ T cells of PBMC-2; 293-CIITA pulsed with peptide [23]: 21 pg/mL
- IFN-g (pg/ml); CD4+ T cells of PBMC-1; 293-CIITA pulsed with peptide [24]: 10200 pg/mL
- IFN-g (pg/ml); CD4+ T cells of PBMC-2; 293-CIITA pulsed with peptide [24]: 10400 pg/mL
